Changes are numbered by the printed parent chain. Where two headings read alike, the source gives them in different places.
What was measured:
soy seed = assay: Free amino acid analysis of soy seed (tryptophan content); assay type: in vivo, Glycine max; conditions: R1 soy seeds expressing the mutant protein
Procedure: Amino Acid Extraction: About 50 mg of crushed soy seed (5 mg of Arabidopsis) material was placed in each centrifuge vial. One milliliter of 5% trichloroacetic acid was added to each sample (100 μl for Arabidopsis). The samples were vortexed, and allowed to sit, with agitation, at room temperature for 15 min. They were then microcentrifuged for 15 min at 14000 rpm. Some of the supernatant was then removed, placed in a HPLC vial and sealed. Samples were kept at 4° C. in the analysis queue.
Amino Acid Analysis: The reagents utilized for amino acid analysis included the OPA reagent (o-phthalaldehyde and 3-mercaptopropionic acid in borate buffer (Hewlett-Packard, PN 5061-3335)) where the borate buffer (0.4 N in water, pH 10.2). The analysis was performed using the Agilent 1100 series HPLC system as described in the Agilent Technical Publication, “Amino Acid Analysis Using Zorbax Eclipse-AAA Columns and the Agilent 1100 HPLC”, Mar. 17, 2000. First, 0.5 μl of the sample was derivatized with 2.5 μl of OPA reagent in 10 μl of borate buffer. Second, the derivative is injected onto a Eclipse XDB-C18 5 μm, 4.6×150 mm column using a flow rate of 1.2 ml/min. Amino acid concentrations were measured using fluorescence: excitation at 340 nm, emission at 450 nm. Elution was with a gradient of HPLC Buffers A and B according to Table A, where HPLC Buffer A was 40 mM Na2HPO4, pH=7.8 and HPLC Buffer B was 9:9:2::Methanol:Acetonitrile:Water.
Amino acid standards were prepared from the dry chemicals, using all amino acids of interest. Proline analysis required an additional derivatization step with 9-fluorenylmethyl-chloroformate (FMOC). Amino acid standards were also sometimes purchased in concentrations ranging from 0 to 100 μg/ml. Samples were reported in μg/g of seed powder.
Mature R1 seed is produced and analyzed for free amino acid content using fluorescence detection as described in Agilent Technologies Technical Bulletin REV14. Five seeds are chosen for single seed analysis from each event. […] The highest levels of tryptophan have a negative impact on germination.

Agro AS = Agro AS enzyme assay, HPLC end-point, desalted extracts of individual soybean seeds; assay type: biochemical, Agrobacterium tumefaciens; conditions: R1 soy seeds carrying the mutant allele
Procedure: The specific activity of anthranilate synthase was measured in eleven transformation events carrying the pMON58120 construct. Individual soybean immature seeds were analyzed using an HPLC-based end-point assay based on the method described by C. Paulsen (J. Chromatogr., 547:155-160 (1991)). Briefly, desalted extracts were generated from individual seeds in grinding buffer (100 mM Tris pH7.5, 10% glycerol, 1 mM EDTA, 1 mM DTT) and incubated for 30 min with reaction buffer (100 mM tris pH 7.5, 1 mM chorismate, 20 mM glutamine, and 10 mM MgCl2). Agro AS activity was measured in the presence or absence of 25 mM trp. The reaction was stopped with phosphoric acid and the amount of anthranilate formed was quantified by HPLC using a fluorescence detector set at 340 nm/excitation and 410 nm/emission.

[1] = test system: Agrobacterium tumefaciens AS; assay: Anthranilate synthase enzyme assay and kinetic analysis of purified enzymes; assay type: biochemical; conditions: for Km: 25° C.
Procedure: Agrobacterium tumefaciens AS wild type and mutant enzymes were expressed in E. coli as described in Example 1. The purification of all the Agrobacterium tumefaciens AS enzymes, including wild type and mutants thereof, was performed at 4° C. The cells (approximate wet weight of 1 g) were suspended in 20 ml of purification buffer (50 mM potassium phosphate, pH 7.3, 10 mM MgCl2, 10 mM 2-mercaptoethanol, 10% glycerol) and lysed by ultrasonication (Branson sonifier Cell Disruptor, W185). Supernatant was collected after centrifugation of the homogenate at 20,000×g for 15 min. The supernatant was subjected to ammonium sulfate fractionation (30 to 65% saturation). The precipitate was collected after centrifugation at 20,000×g for 15 min and dissolved in 3 ml of the purification buffer and then loaded as a whole on an Econo-Pac 10DG desalting column, pre-equilibrated with the same buffer. Fractions containing the enzyme were detected by the developed assay and pooled. The pooled enzyme (4.3 mls) was loaded on a 10 ml DEAF Sephacel (Pharmacia Biotech) column (1.5×7.5 cm) equilibrated with the same buffer. The column was washed with 30 ml of the purification buffer and the enzyme was eluted with 30 ml of 50 mM NaCl in the same buffer. Fractions containing high AS activity were pooled and precipitated by 65% ammonium sulfate saturation and isolated and desalted as above. Fractions containing the enzyme were pooled and stored at −80° C.
The standard assay for Agrobacterium tumefaciens AS was performed at 25° C. in an assay buffer containing 100 mM potassium phosphate, pH 7.0, 10 mM MgCl2, 1 mM dithiothreitol, 200 μM chorismate and 10 mM L-glutamine. The reaction was started by adding 30 μl of enzyme to the reaction mixture and mixing. The formation of anthranilate was directly monitored by the absorbance increase at 320 m for 3 minutes. Initial rate of reaction was calculated as unit absorbance increase per second based on the slope of the absorbance change over the reaction time. Km for chorismate (Km^Cho) was determined in the total volume of 1 ml assay buffer containing 100 mM potassium phosphate, pH 7.0, 10 mM MgCl2, 1 mM dithiothreitol with 10 mM L-glutamine and varying the concentration of chorismate between 2.5-100 μM chorismate. The Km for glutamine (Km^Gln) was determined in the total volume of 1 ml assay buffer containing 100 mM potassium phosphate, pH 7.0, 10 mM MgCl2, 1 mM dithiothreitol with 200 μM chorismate and varying the concentration of L-glutamine between 0.1-2 mM L-glutamine. IC50 for tryptophan (IC50^Trp) was determined with in the total volume of 1 ml assay buffer containing 100 mM potassium phosphate, pH 7.0, 10 mM MgCl2, 1 mM dithiothreitol, 10 mM L-glutamine, 200 μM chorismate and varying the concentration of L-tryptophan between 0.1-10 mM L-tryptophan. Kinetic parameters and IC50 of AS were calculated after fitting the data to a non-linear regression program (GraFit).

B1: F298W (protein)
chain: MVTIIQDDGAETYETKGGIQVSRKRRPTDYANAIDNYIEKLDSHRGAVFSSNYEYPGRYTRWDTAIVDPPLGISCFGRKMWIEAYNGRGEVLLDFITEKLKATPDLTLGASSTRRLDLTVNEPDRVFTEEERSKIPTVFTALRAIVDLFYSSADSAIGLFGAFGYDLAFQFDAIKLSLARPEDQRDMVLFLPDEILVVDHYSAKAWIDRYDFEKDGMTTDGKSSDITPDPFKTTDTIPPKGDHRPGEYSELVVKAKESFRRGDLFEVVPGQKFMERCESNPSAISRRLKAINPSPYSWFINLGDQEYLVGASPEMFVRVSGRRIETCPISGTIKRGDDPIADSEQILKLLNSKKDESELTMCSDVDRNDKSRVCEPGSVKVIGRRQIEMYSRLIHTVDHIEGRLRDDMDAFDGFLSHAWAVTVTGAPKLWAMRFIEGHEKSPRAWYGGAIGMVGFNGDMNTGLTLRTIRIKDGIAEVRAGATLLNDSNPQEEEAETELKASAMISAIRDAKGTNSAATKRDAAKVGTGVKILLVDHEDSFVHTLANYFRQTGATVSTVRSPVAADVFDRFQPDLVVLSPGPGSPTDFDCKATIKAARARDLPIFGVCLGLQALAEAYGGELRQLAVPMHGKPSRIRVLEPGLVFSGLGKEVTVGRYHSIFADPATLPRDFIITAESEDGTIMGIEHAKEPVAAVQFHPESIMTLGQDAGMRMIENVVVHLTRKAKTKAA
modifications: An A. tumefaciens mutant.
- amounts of tryptophan (soy seed): very high amounts of tryptophan
- tryptophan-resistant anthranilate synthase activity (Agro AS): Very high levels
- Km ([1]; pH 7.0, 200 μM chorismate, L-glutamine varied, read-out: Km^Gln): 140 µM
- Km ([1]; pH 7.0, 10 mM L-glutamine, chorismate varied, read-out: Km^Cho): 18 µM
- IC50 ([1]; inhibition by L-tryptophan, 10 mM L-glutamine, 200 μM chorismate): 450 µM
- kcat ([1]; purified enzyme from E. coli): 0.44 s⁻¹

B2: S51F (protein)
chain: B1 chain with S51F, W298F
modifications: An A. tumefaciens mutant.
- amounts of tryptophan (soy seed): very high amounts of tryptophan
- tryptophan-resistant anthranilate synthase activity (Agro AS): Very high levels

— US8158851B2, “Transgenic high tryptophan plants” (Monsanto Technology LLC, priority 2002, dated 2012)
